Experimental data: patent CN110156890A (UNIV SUZHOU, dated 2019)

Columns and labels:
Sema7A_truncated抗原蛋白 = biological target: T1, Sema7A_truncated抗原蛋白 (mouse, UniProt Q9QUR8 59-219); assay: ELISA, 1 ug antigen coated, antibody dilution series
T1 construct: Truncated part of mouse Sema7A chosen for antigenicity, expressed in E. coli from pET28a; also called Sema7A-His; not shown: His tag from pET28a (Sema7A-His)
T1 sequence: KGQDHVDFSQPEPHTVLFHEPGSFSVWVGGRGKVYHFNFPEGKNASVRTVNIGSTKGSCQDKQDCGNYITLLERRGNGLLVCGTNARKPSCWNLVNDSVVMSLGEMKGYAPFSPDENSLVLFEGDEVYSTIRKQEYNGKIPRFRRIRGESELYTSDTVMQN

小鼠Sema7A蛋白 = biological target: T2, 小鼠Sema7A蛋白 (mouse, UniProt Q9QUR8 45-646); assay: western blot of mouse lung tissue
T2 construct: Endogenous protein of mouse lung tissue, denatured on a western blot; also called Semaphorin7A
T2 sequence (looked up): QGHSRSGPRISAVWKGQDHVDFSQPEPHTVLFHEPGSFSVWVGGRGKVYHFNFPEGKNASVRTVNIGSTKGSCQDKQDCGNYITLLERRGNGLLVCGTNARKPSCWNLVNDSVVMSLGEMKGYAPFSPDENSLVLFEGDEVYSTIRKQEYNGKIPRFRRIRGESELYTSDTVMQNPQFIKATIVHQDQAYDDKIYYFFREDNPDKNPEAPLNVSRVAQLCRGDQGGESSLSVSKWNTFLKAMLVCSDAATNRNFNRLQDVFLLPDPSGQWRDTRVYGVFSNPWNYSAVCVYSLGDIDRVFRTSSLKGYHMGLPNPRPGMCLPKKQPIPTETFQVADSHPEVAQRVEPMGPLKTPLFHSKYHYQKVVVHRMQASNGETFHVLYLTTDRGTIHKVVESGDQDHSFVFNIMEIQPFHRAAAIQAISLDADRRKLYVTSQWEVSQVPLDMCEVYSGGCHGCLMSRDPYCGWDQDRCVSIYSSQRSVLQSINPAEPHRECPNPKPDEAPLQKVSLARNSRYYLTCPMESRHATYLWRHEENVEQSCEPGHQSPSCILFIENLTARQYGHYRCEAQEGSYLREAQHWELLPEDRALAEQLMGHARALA

B1: Semaphorin7A单克隆抗体2567-1 (antibody, V domains shown)
VH: QVQLQQSGAELVKPGASVKLSCKASGYTFTSYYMYWVKQRPGQGLEWIGEINPSNGDTNFNEKFKSKATLTVDKSSSTAYMQLSSLTSEDSAVYYCTTPARATFAYWGQGTLVTVSA
VL: DVVMTQTPLSLPVSLGDQASISCRSSQSLVHSNGNTYLHWYLQKPGQSPKLLIYKVSNRFSGVPDRFSGSGSGTDFTLKISRVEAEDLGVYFCSQSTHVPYTFGGGTKLEIK
notes: also called Sema7A抗体2567-1
B1: binds (Sema7A_truncated抗原蛋白); binds (小鼠Sema7A蛋白).
